In patent US20100144822:

Tested on: Argyrin A

## purified human erythrocyte derived 20S proteasome
  activity of the caspase-, chymotrypsin- and trypsin-like proteasome activities (fluorogenic peptide substrates): incubation of purified human 20S proteasome with Argyrin A led to a dose dependent inhibition of the caspase, trypsin and chymotrypsin like proteasome activities
